# Measured values: the nanobody polyreactivity screen of Harvey et al. (2022)
# Assay: yeast display, Sf9 membrane polyspecificity reagent, FACS + sequencing; frameworks hold sequencing errors
# Procedure, shortened: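 Using colony PCR, genes from sorted yeast display clones were amplified, then sequenced on MiSeq at 2 × 250 and filtered by CDR length. The clones had been stained with 10% biotinylated, detergent-solubilized Sf9 membrane reagent for 1 hour at 4 °C and sorted by FACS into low and high (top ~1%) gates on anti-HA and streptavidin fluorescence. Polyreactivity labels come from the gate of origin.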
row,Sequence,polyreactivity (PSR sort gate)
1,QVQLVESGGGLVQAGGSLRLSCAASGYIYQRNAMGWYRQAPGKERELVARINYRGGSFYADSVKGRCTISRDNAKNTGYLQMNSLKPEDTAVYYCAARTSGDMYSWGQGTQVTVSS,high polyreactivity
2,QVQLVESGGGLVQAGGSLRLSCAASGYNFDDNAMGWYRQAPGKERELVATNYADSVKGRFTISRDNAKNTVYLQMKSLKPEDTAVYYCAKDVWQTYTDLDHWGQGTQVTVSS,low polyreactivity
3,QVQLVESGGGLVQAGGSLRLSCAASGYNFNYAMGWYRQAPGKERELVAAISRRGGSTYYADSVKGRFTISRDNAKNTVYLQMNSLTPEDTAVYYCAARLPGYFGIGDYWGQGTQVTVSS,high polyreactivity
4,QVQLVESGGGLVQAGGSLRLSCAASGYPFGYYGKGWYRQAPGKERELVAAISRSGGGSTYYADSVKGRFTISRENAKYTVYLQINSLKPEDTAVYYCNVSPGVWRSIPLYYNLRYGYWGQGTQVTVSS,low polyreactivity
5,QVQLVESGGGLVQAGGSLRLSCAASGYTDYAMGWYRQAPGKERELVATITSGDNTNYADSVKGRFTISRDNAKNTVYLQMNSPQPEDTAVYYCAADRIGRYRPYIGYWGQGTQVTVSS,low polyreactivity
6,QVQLVESGGGLVQAGGSLRLSCAASGYTFAIYAMGWYRQAPGKERELVAAITWNGGSTYYADSVKGRFTISRDNAKNTVFLQMNSLKPEDTAVYYCAADYWSGGYDYWGQGTQVTVSS,low polyreactivity
7,QVQLVESGGGLVQAGGSLRLSCAASGYTFAPYVMGWYRPAPGKERELVARISNNGGSTYYADSVKGRFTISRDNAKNTVYLQMNSLKPEDTAVYYCAADVGLIYFRYYYWGQGTQVTVSS,low polyreactivity
8,QVQLVESGGGLVQAGGSLRLSCAASGYTFASNAMGWYRQAPGKERELVAAITRGGSTNYADSVKGRFTISRDNAKNTVYLQMNSLKPEDTAVYYCAAPRYRHTRKGGYWGQGTQVTVSS,low polyreactivity
9,QVQLVESGGGLVQAGGSLRLSCAASGYTFASYTLGWYRQAPGKERELVATISRGGGRTYYADSVKGRFTISRDNAKNTVYLQMNSLKPEDTAVYYCAARWWYYNGGRDYWGQGTQVTVSS,high polyreactivity
10,QVQLVESGGGLVQAGGSLRLSCAASGYTFAYNAMGWYRQAPGKERELVAVITWSGDSTYYADSVKGRFTISRDNAKNTVYLQMNSLKPEDTAVYYCAAQVDRWKGREHDYWGQGTQVTVSS,low polyreactivity
11,QVQLVESGGGLVQAGGSLRLSCAASGYTFAYNGMGWYRQAPGKERELVAVIDWSTGDTYYADSVKGRFTISRDNAKNTVYLQMNSLKPEDTAVYYCAADFFEGLYVFWGQGTQVTVSW,low polyreactivity
12,QVQLVESGGGLVQAGGSLRLSCAASGYTFDLYAMGWYRQAPGKERELVADISSGGSTNYADSVKGRFTISRDNAKNTVYLQMNSLKPEDTAVYYCAVDADRTLFGQYYVSEYGGGYWGQGTQVTVSS,low polyreactivity
13,QVQLVESGGGLVQAGGSLRLSCAASGYTFGAYAMGWNRQAPGKERELVAAITVRAGRTYYADSVKGRFTISRDNAKNSVYLQMNSLKPEDTSVYYCARRNPLGGNEHDYWGHGTQVTVSS,low polyreactivity
14,QVQLVESGGGLVQAGGSLRLSCAASGYTFGINAMGWYRQAPGKERELVAAITTGGSTNYADSVKGRFTISRDNAKNSVYLQMNSLKPEDTAVYYCNASWDVWNANYWYPGAYYYWGQGTQVTVSS,low polyreactivity
15,QVQLVESGGGLVQAGGSLRLSCAASGYTFGKYAMGWYRQAPGKERELVAGISSRGGSTYYADSVKGRFTISRDNAKNTVYLQMNSLKPEDTAVYYCAAVAYTGGPRKLGFNYWGQGTQVSVSS,high polyreactivity
16,QVQLVESGGGLVQAGGSLRLSCAASGYTFGKYVMGWYRQAPGKERELVAAISKSGSGTYYADSVKGRFTISRDNAKNTVYFQMNSLKPEDTAVYYFAARGYGFPELDYWGQGTQVTVSS,high polyreactivity
17,QVQLVESGGGLVQAGGSLRLSCAASGYTFGSNAMGWYRQAPGKERELVAAISNGGSTNYADSVKGRFTISRDNAKNTVYLQMTSLKPEDTAVYYCAAASRWHIGYWRYDYWGQGTQVTVSS,low polyreactivity
18,QVQLVESGGGLVQAGGSLRLSCAASGYTFGSYAMGWYRQAPGKERELVAAITRRGGSTYYADSVKGRFTISRDNAKNTVYLQMTSLKPEDTEVYYCAKRSRDYVSSFLTSHANDYWGQGTQVTVSS,high polyreactivity
19,QVQLVESGGGLVQAGGSLRLSCAASGYTFGYYAMGWYRQAPGKERELVAAISSGGSTYYADSVKGRFTISRDNAKNTVYLQMNSLKPEDTAVYYCAVVRYLGDRGMNYWGQGTQVTVSS,low polyreactivity
20,QVQLVESGGGLVQAGGSLRLSCAASGYTFIDNAMGWYRQAPGKERELVAAISWSVDRTYYADSVKGRFTISRDNAKNTVYLQMNSLKPEDTAVYYCAAVHWWSSSLRMYYWGQGTQVTVSS,low polyreactivity
21,QVQLVESGGGLVQAGGSLRLSCAASGYTFIVNAMGWYRQAPGKERELVAAITSGGGTYYADSVKGRFTISRDNAKNTVYLQMNCLKPEDTAVYYCAARSGYRYVESDYWGQGTQVTVSS,high polyreactivity

row,Sequence,polyreactivity (PSR sort gate)
1,QVQLVESGGGLVQAGGSLRLSCAASGYTFKAYAMGWNIQAPGKERELVAAISWSGARTYYAYSVKGRFTISRDNAKNTVYLEMNRLKPEYTAVYYCAASNAVYAGRSYRDEYWGQGTQVTVSS,high polyreactivity
2,QVQLVESGGGLVQAGGSLRLSCAASGYTFKTNDMGWSRQAPGKEREFVAAIDSGGNTYYADSVKGRFTISRDNAKNTVYLQMNSLKPEDTAVYYCAAYRDYQYDYWGQGTQVTVSS,low polyreactivity
3,QVQLVESGGGLVQAGGSLRLSCAASGYTFLIYAMGGYRQAPGKERELVASISRSGGSTYYADSVKGRFTISRDNAKKTVYLQMNSLKPEDTAVYYCAARNPYRYFYNYEYWGQGTQVTVSS,low polyreactivity
4,QVQLVESGGGLVQAGGSLRLSCAASGYTFLKYAMGWYRQAPGKERELVAAISGRGGRTYYADSVKGRFTISRDNAKNTVYLQMNSLKPEDTAVYYCNAVRNSPDDYWGQGTQVTVSS,high polyreactivity
5,QVQLVESGGGLVQAGGSLRLSCAASGYTFPLYAMGWYRQAAGKERELVADINIGGASTYYADSVKGRFTISRHNAKNTVYLQMNSLKPEESAVYYCAKEYYDGYFPTFDYDYWGQGTQVTVSS,low polyreactivity
6,QVQLVESGGGLVQAGGSLRLSCAASGYTFPRYAMGWYRQAPGKERELVATINWTGSNTYADSVKGRFTISRDNAKNTVYLQMNSLKPEDTAVYYCAKDSWNVRSGRYNYWGQGTQVTVSS,low polyreactivity
7,QVQLVESGGGLVQAGGSLRLSCAASGYTFPVYAKGWYRQASRKERELVATSTSGGSTNYADSVKGRFTISRDNAKNTVYFQMNSLKPEDTAVYYCAADRALSISLYPIASFYYWGQGTQVTVSS,low polyreactivity
8,QVQLVESGGGLVQAGGSLRLSCAASGYTFPYYTMGWYRQAPGKERELVATITRRGDSTYYADSVKGRFTLSRDNAKNTVYLQMNSLKPEDTAVYYCNTASYGRHQFRKSSKMDYWGQGTQVTVSS,high polyreactivity
9,QVQLVESGGGLVQAGGSLRLSCAASGYTFQYNSMGWYRQAHGKERELVATISNRGTSTYYADSVKGRFTISRDNAKKTVYLQMNSLKPEDTAVYYCAKSRWSLYSSGVWSRRHFYYWGHGTQVTVSS,high polyreactivity
10,QVQLVESGGGLVQAGGSLRLSCAASGYTFRFNAMGWYRQAPGKEREFVAAIDFGGAGTYYADSVKGRFTISRDNATNTVYVQMNSLKPEDTAVYYCNARDGVTTEFDYWGQGTQVTVSS,low polyreactivity
11,QVQLVESGGGLVQAGGSLRLSCAASGYTFRGYAMGWYRQAPGKERELVAAISWSGGRTYYADSVKVRFTISRDNAKNTVYLQMNSLKPEDTAVYYCDAETHVGWPAKFDYWGQGTQVTVSS,high polyreactivity
12,QVQLVESGGGLVQAGGSLRLSCAASGYTFRYYAMGWYRQAHGKERELVAAITSSTSSTYYADSVKGRFTISRDNAKNTVYLQMNSLKPEDTAVYYCNRVWSTSMDYWGEGTQVTVSS,high polyreactivity
13,QVQLVESGGGLVQAGGSLRLSCAASGYTFRYYAMGWYRQAHGKERELVDDINSGDITNYADSVKGRFTISRDNAKYTVYLQMNSLKTEDTAVYYCARRTFSLYDYWGQGTQVTVSS,low polyreactivity
14,QVQLVESGGGLVQAGGSLRLSCAASGYTFRYYAMGWYRQAPGKDRELVAVISSGGSTKYADSVKGRFTNSRDNAKNTVYLQMNSLKPEDTAVYYCAARYRSLYNYWGQGTQVTVSS,high polyreactivity
15,QVQLVESGGGLVQAGGSLRLSCAASGYTFRYYAMGWYRQAPGKERELVAAITWSGGSTYYADSVKGRFTISRDNAKNTVYLQMNSLKPEDTAVYYCATDSARVGNFPDPQFDYWGQGTQVTVSS,low polyreactivity
16,QVQLVESGGGLVQAGGSLRLSCAASGYTFSDNAMGWYRQAPGKERELVAAITSGVSTYYADSVKGRFTISRDNAKNTVYLQMNSLKPEDTAVYYCAKDVAVYADLYQGAPYGYWGQGTQVTVSS,low polyreactivity
17,QVQLVESGGGLVQAGGSLRLSCAASGYTFSFYAMGWYIQAPGKERELVATISWRGGSTYYADSVKGRFTISRDNAKNTVYLQMNSLKPEDTAVYYCNIVDKTGSKMDYWGQGTQVTVSS,high polyreactivity
18,QVQLVESGGGLVQAGGSLRLSCAASGYTFSLNAMGWYRQAPGKERELVAAIRGGGSTNYADSVKGRFTISRDNAKKTVYLQMNSLKPEDTAVYYCAASSYNGHVYWGQGTQVTVSS,low polyreactivity
19,QVQLVESGGGLVQAGGSLRLSCAASGYTFSRNAMGWYRPAPGKERELVAAITGSGGSTYYADSVKGRFTISRDNAKNTVYLQMNSLKPEDTAVYYCASKYYGRSFYYGYDYWGQGTQVTVSS,low polyreactivity
20,QVQLVESGGGLVQAGGSLRLSCAASGYTFSRNAMGWYRQAPGKERELVADINYSGGITYYADSVKGRFTISRDNAKNTVYLQMNSLKPEDTAVYYCAAVATNVPTHGRPSRRAYDYWGQGTQVTVSS,low polyreactivity
